Molecular target: human von Willebrand factor (vWF) (human) (UniProt P04275)

glycoprotein Ib alpha chain (GPIbα) (from UniProt P07359 17-652) (receptor)
platelet adherence to vWF-coated surface (LDH assay, normalised to PRP only = 100%) in the presence of GPIb-NPs, 1 mg/mL: 72% | platelet adherence to vWF-coated surface (LDH assay, normalised to PRP only = 100%) in the presence of dual-NPs (GPIbα and anti-CD34 HuscFv on one NP), 1 mg/mL: 76% | platelet adherence to vWF-coated surface (LDH assay, normalised to PRP only = 100%) in the presence of free GPIb: 86%
